Assay results as given in the Human Domainome abundance scans (Beltran et al. 2025).

B1: Death-inducer obliterator 1, residues 263 to 321; numbered along this chain, Q9BTC0 (parent)
chain: GYDPNALYCICRQPHNNRFMICCDRCEEWFHGDCVGISEARGRLLERNGEDYICPNCTI

Variants of: B1
Test: abundance fitness (aPCA) (normalised: wild type 0, dead -1); higher = more abundant; growth selection in yeast, the domain comes from the species named
Details: Homo sapiens

Abundance fitness of substitutions, site by site:
Y8: N 0.192; P 0.059; E 0.038; T 0.264; I 0.165; C 0.069; K 0.115; R 0.115; F 0.035; Q -0.019; V 0.041; S 0.125; W -0.154; D 0.135; H 0.03; M 0.07; L 0.048
I10: N 0.011; Y -0.449; H 0.105; L -0.105; W -0.169; V -0.116; G -0.217; T 0.017; K -0.064; E -0.143; S 0.018; A -0.084; M 0.035; D -0.418; Q -0.182
C11: D -0.381; N -0.708; Q -0.609; S -0.92; T -0.747; F -0.724; I -0.785; G -1.15; M -0.71; L -0.861; R -0.861; P -0.999; W -0.953; E -0.622
R12: P -0.463; W -0.284; G 0.184; C -0.216; Y -0.296; M -0.305; V -0.36; I -0.48; K 0.148; Q -0.186; D -0.101; T -0.105; A -0.14; E -0.04; H 0.019; L -0.11; F -0.207
H15: M 0.138; C 0.018; F -0.414; P -0.126; E 0.029; I -0.039; L 0.058; K -0.121; N 0.051; V 0.076; Y -0.025; S 0.164; Q -0.148; W -0.037; D 0.073; G 0.017; A -0.088
R18: Q 0.042; S 0.104; W -0.16; M 0.139; V 0.03; F -0.24; E -0.023; G 0.105; C -0.047; I -0.215; A -0.073; Y 0.011; D -0.167; N -0.168; K 0.009; H 0.112; P -0.34
N16: K -0.019; D -0.049; G 0.152; F -0.184; I -0.109; Q 0.027; P -0.218; T 0.058; L -0.064; H 0.108; W -0.072; M 0.065; S -0.119; V -0.045; C -0.211; E 0.072; Y -0.399
A6: P -0.471; I -0.279; Y -0.806; R -0.419; D -0.434; G -0.306; F -0.198; M 0.102; L -0.33; T -0.07; W -0.569; Q -0.105; S -0.511; N 0.041; E -0.328; V -0.066; K -0.412
C9: A -0.636; P -0.877; V -0.552; I -0.823; F -0.659; Y -0.763; W -0.543; N -1.01; M -0.606; E -0.664; Q -0.495; K -1; L -0.813; S -0.859; T -0.743; G -0.535; R -0.534
P4: Y -0.258; I -0.14; N -0.036; D 0.354; M 0.021; A -0.075; T -0.147; V -0.183; S 0.091; R 0.076; H -0.062; K 0.297; C 0.063; E -0.213; L 0.036; Q -0.043; G -0.122; F 0.264; W -0.086
N17: S -0.111; G 0.032; I -0.142; Y -0.086; P -0.179; K 0.023; D -0.148; W -0.317; L -0.05; T -0.07; C -0.117; Q 0.181; V -0.374; F -0.182; A -0.03; H 0.008; M -0.043
L7: H 0.119; P -0.119; N 0.009; I 0.106; E 0.032; R 0.008; W -0.055; T -0.006; Y 0.002; C -0.062; G 0.086; M 0.1; Q 0.026; K -0.012; F 0.042; D -0.415
M20: E -0.403; A -0.343; L -0.037; C -0.209; W -0.323; G -0.023; Q -0.077; F -0.216; R -0.07; I 0.045; D -0.559; T 0.053; V -0.077; S 0.002; P -0.519
G1: Y 0.132; P -0.104; N 0.109; M -0.144; V 0.323; R -0.134; Q -0.167; W -0.336; F 0.058; S 0.199; I 0.16; C 0.138; D 0.181; L 0.266
F19: M -0.265; K -0.166; E -0.291; I -0.028; S -0.143; A -0.182; G -0.224; H 0.062; W -0.016; Y 0.058; V -0.166; L -0.016; R -0.145; P 0.088; Q 0.048; N -0.341
Q13: H -0.159; G -0.233; T 0.105; Y -0.161; K -0.054; P -0.692; E 0.072; R -0.085; S -0.136; N -0.061; D 0.02; V -0.068; A 0.183; L -0.089; F -0.159; M 0.149; I -0.111
Y2: E 0.347; A -0.03; H 0.156; F 0.351; D -0.03; P 0.102; R 0.211; C 0.039; K 0.191; M 0.161; I 0.298; N 0.269; L 0.342; V -0.112; Q 0.161; G 0.165; S 0.116
P14: N -0.003; F -0.084; Y 0.111; A 0.006; H -0.04; W -0.496; K 0.201; I -0.028; G 0.018; S 0.035; T 0.031; V 0.07; L 0.022; D -0.284; E 0.141; Q 0.079; M 0.004
D3: C -0.048; F 0.025; K 0.123; I -0.007; E 0.043; G -0.243; A -0.735; M 0.199; P 0.135; T 0.023; H 0.111; S 0.174; V -0.177; Q -0.004; N 0.155; L -0.024; W -0.163; R -0.049; Y 0.002
N5: W -0.793; G -0.273; F -0.189; R -0.211; H -0.433; I -0.242; C -0.497; V -0.186; A -0.413; P -0.796; S -0.259; D 0.004; E -0.184; K -0.23; T -0.319; Q -0.112; M -0.113; Y -0.623; L -0.331
